In experiment [1] the target is Cynomolgus monkey IL-33 (cynomolgus monkey). As to the kind of experiment: cell-based or functional assay.
Experiment [2] addresses T1, Human IL-33 (human, UniProt O95760 95-270, limits assumed).
T1 sequence: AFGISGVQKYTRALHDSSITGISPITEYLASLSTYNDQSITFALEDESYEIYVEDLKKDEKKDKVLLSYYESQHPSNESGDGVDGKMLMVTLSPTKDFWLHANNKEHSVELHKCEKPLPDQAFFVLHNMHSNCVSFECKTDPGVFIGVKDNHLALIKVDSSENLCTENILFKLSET
As to the kind of experiment: cell-based or functional assay.

For experiment [3], the target named is T2, Cynomolgus monkey IL-33 (cynomolgus monkey, UniProt A0A2K5W3I1 95-269).
T2 construct: also called Cynomolgus IL-33; Cyno-IL33
T2 sequence: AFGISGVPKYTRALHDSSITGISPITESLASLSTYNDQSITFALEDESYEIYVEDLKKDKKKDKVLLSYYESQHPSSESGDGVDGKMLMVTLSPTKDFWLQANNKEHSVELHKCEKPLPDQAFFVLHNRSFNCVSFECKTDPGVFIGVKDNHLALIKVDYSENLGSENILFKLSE
Put plainly: SPR (Biacore T100/T200), antibody captured on Protein A, 37° C., 1:1 model. As for the experimental part:
(§1) A CM4 chip containing immobilized Protein A (generated using standard NHS-EDC amine coupling) on all four flow cells (Fc) is used to employ a capture method. Antibody samples are prepared at 10 μg/mL in running buffer. Mouse, rat, and rabbit IL-33 samples are prepared at final concentrations of 1000, 500, 250, 125, 63, 31, 16, and 0 nM in running buffer. Human and Cynomologus IL-33 samples are prepared at final concentrations of 250, 125, 63, 31, 16, 8, 4, 2, 1, and 0 nM in running buffer. Each analysis cycle involves the steps of (1) capturing antibody samples on separate flow cells (Fc2, Fc3, or Fc4); (2) injecting 200 μL of IL-33 over all flow cells at 100 μL/min; (3) returning to buffer flow for a minimum of 10 min at 100 μL/min to monitor complex dissociation; (4) regenerating the chip surface with two sequential injections of 7.5 microliters of glycine, pH1.5; and (5) equilibrating the chip surface for 5 minutes prior to repeating the cycle. Each IL-33 concentration is injected in duplicate. Data is processed using standard double-referencing and fit to a 1:1 binding model using Biacore T100 Evaluation software, version 2.0.1, to determine the association rate (on-rate, kₒₙ, M⁻¹s⁻¹ units) and the dissociation rate (off-rate, koff, s⁻¹ units). The equilibrium dissociation constant (KD) is calculated from the relationship KD=koff/kₒₙ, and is in molar units. Three experimental replicates (n) are conducted for the binding of Antibody 43 to human and cynomolgus monkey IL-33.

Experiment [4] addresses T1, Human IL-33. The description is as above. As to the method:
as §1

The target in experiment [5] is T2, Cynomolgus monkey IL-33. As to the kind of experiment: cell-based or functional assay.
Experiment [6] has as its target T1, Human IL-33. As to the kind of experiment: cell-based or functional assay. This is another data set of the same source.
Experiment [7] deals with T1, Human IL-33. As to the kind of experiment: cell-based or functional assay. The source holds these as a separate data set.
Experiment [8] deals with T3, IL-36γ (human, UniProt Q9NZH8 18-169).
T3 sequence (looked up): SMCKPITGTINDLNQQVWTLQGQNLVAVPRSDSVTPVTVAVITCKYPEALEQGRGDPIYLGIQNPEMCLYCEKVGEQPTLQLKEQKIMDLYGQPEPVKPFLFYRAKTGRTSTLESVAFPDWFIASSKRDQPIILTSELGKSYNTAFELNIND
As to the kind of experiment: SPR (BIAcore 2000), antibody captured on Protein A, analyte at 500 nM. As to the method: (§2) Protein A (Calbiochem) is coupled via free amine groups to carboxyl groups on flow cells 1 and 2 of a CM5 biosensor chip (GE Healthcare) using a mixture of N-ethyl-N-(dimethylaminopropyl)-carbodiimide (EDC) and N-hydroxysuccinimide (NHS). To capture positive control antibodies, Rabbit anti-Goat IgG (Fc specific) is coupled to flow cell 3, and Rabbit anti-Rat IgG (Fc specific) is coupled to flow cell 4 (both from Jackson ImmunoResearch). Flow cells are monitored with a flow rate of 30 μL/minute using a buffer containing 0.01 M HEPES, pH 7.4, 150 mM NaCl, 0.005% surfactant P20. Antibody 43 is captured on flow cell 2 to yield a total of 300 to 800 response units (RU; results reflect flow cell 2 minus flow cell 1). Binding tests are followed by a regeneration step using glycine-HCl (pH 1.5) between each cycle. Flow cell 1 is used as a control to monitor non-specific binding of analytes tested. The exemplified antibody is tested with all analytes of the human IL-1 protein family as listed at 500 nM concentration.
(In SPR one partner is held on a chip, and binding of the other changes the refractive index at the surface.)

In experiment [9] the target is T4, IL-18 (human, UniProt Q14116 37-193).
T4 sequence (looked up): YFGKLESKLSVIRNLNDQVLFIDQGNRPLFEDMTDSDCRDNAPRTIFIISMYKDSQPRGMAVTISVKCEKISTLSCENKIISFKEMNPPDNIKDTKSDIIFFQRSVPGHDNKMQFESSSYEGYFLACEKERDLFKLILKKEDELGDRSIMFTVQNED
Described as above. As for the experimental part:
as §2

Experiment [10] addresses T5, IL-36β (human, UniProt Q9NZH7-2 5-157).
T5 sequence (looked up): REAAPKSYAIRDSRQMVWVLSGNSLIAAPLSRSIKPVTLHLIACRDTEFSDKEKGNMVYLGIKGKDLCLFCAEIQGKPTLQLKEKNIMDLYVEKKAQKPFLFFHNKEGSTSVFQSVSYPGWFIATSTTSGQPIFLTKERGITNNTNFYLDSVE
The experiment is described as above. As for the experimental part:
as §2

Experiment [11] concerns the target IL-1RA (human, UniProt P18510 26-177). Described as above. As to the method:
as §2

The target of experiment [12] is T6, IL-1α (human, UniProt P01583 113-271).
T6 sequence (looked up): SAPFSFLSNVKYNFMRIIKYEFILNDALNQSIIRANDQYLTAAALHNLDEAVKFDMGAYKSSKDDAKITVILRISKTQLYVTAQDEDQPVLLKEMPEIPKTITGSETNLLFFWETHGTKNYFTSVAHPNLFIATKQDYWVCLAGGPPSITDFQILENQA
The experiment is described as above. As to the method:
as §2

Experiment [13] concerns the target IL-1β (human, UniProt P01584 117-269). The experiment is described as above. As to the method:
as §2

In experiment [14] the target is T7, IL-36α (human, UniProt Q9UHA7 6-158).
T7 sequence (looked up): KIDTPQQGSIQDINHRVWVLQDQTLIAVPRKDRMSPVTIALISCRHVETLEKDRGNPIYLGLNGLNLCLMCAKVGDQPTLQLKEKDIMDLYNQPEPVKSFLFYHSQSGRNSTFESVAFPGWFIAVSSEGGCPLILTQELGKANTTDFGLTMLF
Described as above. As to the method:
as §2

For experiment [15], the target named is T8, IL-36RA (human, UniProt Q9UBH0 2-155).
T8 sequence (looked up): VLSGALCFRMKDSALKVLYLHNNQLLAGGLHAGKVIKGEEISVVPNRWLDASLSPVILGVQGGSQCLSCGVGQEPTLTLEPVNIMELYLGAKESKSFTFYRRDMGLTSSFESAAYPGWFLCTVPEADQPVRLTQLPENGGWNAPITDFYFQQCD
Described as above. As for the experimental part: as §2

For experiment [16], the target named is T9, IL-37 (human, UniProt Q9NZH6 46-218, limits assumed).
T9 sequence (looked up): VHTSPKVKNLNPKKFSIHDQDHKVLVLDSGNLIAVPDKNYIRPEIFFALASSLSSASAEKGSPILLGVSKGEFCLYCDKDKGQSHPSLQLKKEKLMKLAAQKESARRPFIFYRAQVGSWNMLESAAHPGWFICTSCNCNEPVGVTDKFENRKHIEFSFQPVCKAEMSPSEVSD
The experiment is described as above. As for the experimental part: as §2

Experiment [17] deals with T2, Cynomolgus monkey IL-33. As to the kind of experiment: SPR affinities. As to the method:
as §1, with “Three experimental replicates (n) are conducted for the binding of Antibody 43 to human and cynomolgus monkey IL-33.” left out

The target in experiment [18] is T2, Cynomolgus monkey IL-33. Put plainly: SPR (Biacore), antibody captured on Protein A, 37° C., 1:1 model. As for the experimental part:
as §1

The target in experiment [19] is T1, Human IL-33. The description is as above. As for the experimental part:
as §1

Here are results for three molecules from patent publication US20180118821A1 (Eli Lilly, published 2018).

Broadly, the Kd is the equilibrium constant for the complex coming apart. Usually koff stands for a measure of how fast the partners let go of each other. In general, kon refers to the rate constant with which the complex forms.

Read-outs that look alike come from different tables or passages of the source.

Chain of IL-1RA (P18510 26-177 limits assumed): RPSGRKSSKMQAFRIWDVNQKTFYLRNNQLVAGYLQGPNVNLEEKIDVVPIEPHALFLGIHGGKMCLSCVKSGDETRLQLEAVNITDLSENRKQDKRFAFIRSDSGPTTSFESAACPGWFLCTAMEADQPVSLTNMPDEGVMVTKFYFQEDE

As to “Human monomeric ST2 (IL1RL1) (from UniProt Q01638 19-328) (receptor)”, in experiment [1], the IC50 in the in vitro NFκB-GEC-luciferase activity assay was 175 pM. Moreover, in experiment [2], the IC50 in the in vitro NFκB-GEC-luciferase activity assay came out at 426 pM and the IC50 of inhibition of IL-33-induced GM-CSF secretion from human mast cells was 7600 pM.

B1: Antibody 43 (antibody, human IgG4 S228P, kappa, F234A L235A, V domains shown)
VH: EVQLVETGGGLIQPGGSLRLSCAASGFTFSFYAMSWVRQAPGKGLEWVSAISGSGGSTYYADSVKGRFTISRDNSKNTLYLQMNSLRAEDTAVYYCARTIHGIRAAYDAFIIWGQGTLVTVSS
VL: EIVLTQSPGTLSLSPGERATLSCRASQSVGINLSWYQQKPGQAPRLLIYGASHRLTGIPDRFSGSGSGTDFTLTISRLEPEDFAVYYCHQYSQPPPFTFGGGTKVEIKR
notes: Derived from Antibody 54 by engineering to reduce potential immunogenicity; expressed in CHO cells; also called Ab 43; Exemplified Antibody
Take B1: the results for the Kd in [3] and in [4] were 338 pM and 49 pM, respectively. Moreover, the koff in experiment [3] is 0.00051 s⁻¹; in experiment [4], 7.2e-05 s⁻¹. The kon in experiment [3] and in [4] was 1.5e+06 M⁻¹ s⁻¹ throughout. The entries for the “IC50 in the in vitro NFκB-GEC-luciferase activity assay” value in experiment [5] and in experiment [6] were 1920 pM and 330 pM, respectively. Moreover, in experiment [7], the “IC50 of inhibition of IL-33-induced GM-CSF secretion from human mast cells” value came to 300 pM. Besides, the binding result in [8], in experiment [9], in experiment [10], in experiment [11], in experiment [12] and in experiment [13] was “no binding (tested: 500 nM)” each time. For the same molecule, the binding result in experiment [14], in experiment [15] and in [16] was “no binding (tested: 500 nM)” in each case.

B2: Antibody 75 (antibody, human IgG4 S228P, kappa, F234A L235A, V domains shown)
VH: EVQLVETGGGLIQPGGSLRLSCAASGFTFSSYAMSWVRQAPGKGLEWVSAISGSGGSTYYADSVKGRFTISRDNSKNTLYLQMNSLRAEDTAVYYCARTLHGIRAAYDAFIIWGQGTLVTVSS
VL: EIVLTQSPGTLSLSPGERATLSCRASQSVGINLSWYQQKPGQAPRLLIYGASHRATGIPDRFSGSGSGTDFTLTISRLEPEDFAVYYCHQYSQSPPFTFGGGTKVEIKR
notes: Human IgG4 antibody; 3-53 heavy chain framework and A27 light chain framework with the CDRs of Antibody 23; also called Ab 75
In the case of B2, the “IC50 in the in vitro NFκB-GEC-luciferase activity assay” value in [6] amounted to 286 pM. Further, the “fold difference in species cross-reactivity (affinity to cynomolgus IL-33 against human IL-33)” value in experiment [17] is approximately 850 fold. In [18], this molecule had a Kd of 12400 pM, a koff of 0.019 s⁻¹ and a kon of 1.7e+06 M⁻¹ s⁻¹. In experiment [19], the Kd amounted to 14.5 pM, the koff turned out to be 2.6e-05 s⁻¹ and the kon came to 1.7e+06 M⁻¹ s⁻¹.
